We go through one protein from PMC11513889.

Substrate in the series: NC(=O)NO
In words: purified protein. As to conditions: 1 mM NADH, NB5R3, CYB5B, 20 mM MES pH 6.0, 37 °C.

B1: mARC1 (Homo sapiens) (protein)
chain: GAAGSSALARFVLLAQSRPGWLGVAALGLTAVALGAVAWRRAWPTRRRRLLQQVGTVAQLWIYPVKSCKGVPVSEAECTAMGLRSGNLRDRFWLVINQEGNMVTARQEPRLVLISLTCDGDTLTLSAAYTKDLLLPIKTPTTNAVHKCRVHGLEIEGRDCGEATAQWITSFLKSQPYRLVHFEPHMRPRRPHQIADLFRPKDQIAYSDTSPFLILSEASLADLNSRLEKKVKATNFRPNIVISGCDVYAEDSWDELLIGDVELKRVMACSRCILTTVDPDTGVMSRKEPLETLKSYRQCDPSERKLYGKSPLFGQYFVLENPGTIKVGDPVYLLGQ
The term Km denotes the substrate concentration at which the rate is half of its maximum. In the case of B1, the Km is 7 mM.
